The record followed here is the supplement of paper PMC5998384.

For series [1], the system named is HeLa Kyoto. Briefly: melting temperature (median over replicates), in situ; higher = more thermally stable.
Series [2] concerns HeLa Kyoto. The series can be described thus: thermal stability score vs G1/S (z-score of summed log2 fold changes over temperatures); higher = more thermally stable than in G1/S.
Series [3] deals with HeLa Kyoto. The series can be described thus: solubility in G1/S (NP-40 vs SDS abundance) (log2 ratio); higher = more soluble. Particulars: cell cycle stage: G1/S.
Series [4] has as its system HeLa Kyoto. The series can be described thus: solubility change mitosis vs G1/S (difference of NP-40 vs SDS log2 ratios) (log2 ratio difference); higher = more soluble in mitosis.
[5] abbreviates: cell cycle stage: early G1 (4.5 h after nocodazole release).
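For melting temperature (median over replicates), in situ in this document: HeLa Kyoto cells synchronized by double thymidine or nocodazole block, proteins quantified by TMT10plex mass spectrometry, three independent biological replicates.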
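For solubility change mitosis vs G1/S (difference of NP-40 vs SDS log2 ratios) in this document: synchronized HeLa Kyoto cells (double thymidine block for G1/S, nocodazole release for mitosis), protein amounts in NP-40 versus SDS lysates quantified by mass spectrometry, three biological replicates.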
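For solubility in G1/S (NP-40 vs SDS abundance) in this document: HeLa Kyoto cells arrested at G1/S by double thymidine block, proteins quantified by TMT10plex mass spectrometry in mild NP-40 versus SDS extracts, three biological replicates.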
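For thermal stability score vs G1/S (z-score of summed log2 fold changes over temperatures) in this document: synchronized HeLa Kyoto cells, proteins quantified by TMT10plex mass spectrometry, three biological replicates, mitosis taken 0.5 h after nocodazole release, G1/S directly after double thymidine block.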

“MAAACRSVKGLVAVITGGASGLGLATAERLVGQGASAVLLDLPNSGGEAQAKKLGNNCVFAPADVTSEKDVQTALALAKGKFGRVDVAVNCAGIAVASKTYNLKKGQTHTLEDFQRVLDVNLMGTFNVIRLVAGEMGQNEPDQGGQRGVIINTASVAAFEGQVGQAAYSASKGGIVGMTLPIARDLAPIGIRVMTIAPGLFGTPLLTSLPEKVCNFLASQVPFPSRLGDPAEYAHLVQAIIENPFLNGEVIRLDGAIRMQP [HSD17B10]”: the melting temperature in series [1] (cell cycle stage: G1/S) turned out to be 54.5 °C; in series [1] (cell cycle stage: mitosis) it was 54.4 °C. For the same sequence, the thermal stability score is 0.0147 in series [2] (setting [5]) and -4.18 in series [2] (cell cycle stage: mitosis). Moreover, the “solubility in G1/S (log2)” value in series [3] is 0.254. The “solubility change mitosis (log2)” value in series [4] was -0.041.
As to “MAAAEAGGDDARCVRLSAERAQALLADVDTLLFDCDGVLWRGETAVPGAPEALRALRARGKRLGFITNNSSKTRAAYAEKLRRLGFGGPAGPGASLEVFGTAYCTALYLRQRLAGAPAPKAYVLGSPALAAELEAVGVASVGVGPEPLQGEGPGDWLHAPLEPDVRAVVVGFDPHFSYMKLTKALRYLQQPGCLLVGTNMDNRLPLENGRFIAGTGCLVRAVEMAAQRQADIIGKPSRFIFDCVSQEYGINPERTVMVGDRLDTDILLGATCGLKTILTLTGVSTLGDVKNNQESDCVSKKKMVPDFYVDSIADLLPALQG [PGP]”, the figures for the melting temperature in series [1] (cell cycle stage: G1/S) and in series [1] (cell cycle stage: mitosis) were 56.8 °C and 58.2 °C, respectively. Besides, the thermal stability score in series [2] (setting [5]) is -0.684; in series [2] (cell cycle stage: mitosis) it was -1.2. In series [3], the “solubility in G1/S (log2)” value came out at 0.536. In addition, in series [4], the “solubility change mitosis (log2)” value is -0.00434.
Consider “MAAAEGPVGDGELWQTWLPNHVVFLRLREGLKNQSPTEAEKPASSSLPSSPPPQLLTRNVVFGLGGELFLWDGEDSSFLVVRLRGPSGGGEEPALSQYQRLLCINPPLFEIYQVLLSPTQHHVALIGIKGLMVLELPKRWGKNSEFEGGKSTVNCSTTPVAERFFTSSTSLTLKHAAWYPSEILDPHVVLLTSDNVIRIYSLREPQTPTNVIILSEAEEESLVLNKGRAYTASLGETAVAFDFGPLAAVPKTLFGQNGKDEVVAYPLYILYENGETFLTYISLLHSPGNIGKLLGPLPMHPAAEDNYGYDACAVLCLPCVPNILVIATESGMLYHCVVLEGEEEDDHTSEKSWDSRIDLIPSLYVFECVELELALKLASGEDDPFDSDFSCPVKLHRDPKCPSRYHCTHEAGVHSVGLTWIHKLHKFLGSDEEDKDSLQELSTEQKCFVEHILCTKPLPCRQPAPIRGFWIVPDILGPTMICITSTYECLIWPLLSTVHPASPPLLCTREDVEVAESPLRVLAETPDSFEKHIRSILQRSVANPAFLKASEKDIAPPPEECLQLLSRATQVFREQYILKQDLAKEEIQRRVKLLCDQKKKQLEDLSYCREERKSLREMAERLADKYEEAKEKQEDIMNRMKKLLHSFHSELPVLSDSERDMKKELQLIPDQLRHLGNAIKQVTMKKDYQQQKMEKVLSLPKPTIILSAYQRKCIQSILKEEGEHIREMVKQINDIRNHVNF [NUP88]”, for which the figures for the melting temperature in series [1] (cell cycle stage: G1/S) and in series [1] (cell cycle stage: mitosis) were 50.4 °C and 48.8 °C, respectively. In addition, the thermal stability score in series [2] (setting [5]) is -1.46; in series [2] (cell cycle stage: mitosis) it was -0.755. Further, the “solubility in G1/S (log2)” value in series [3] was -0.268. For the same sequence, the “solubility change mitosis (log2)” value in series [4] came to 0.171.
On to “MAAAEPAVLALPNSGAGGAGAPSGTVPVLFCFSVFARPSSVPHGAGYELLIQKFLSLYGDQIDMHRKFVVQLFAEEWGQYVDLPKGFAVSERCKVRLVPLQIQLTTLGNLTPSSTVFFCCDMQERFRPAIKYFGDIISVGQRLLQGARILGIPVIVTEQYPKGLGSTVQEIDLTGVKLVLPKTKFSMVLPEVEAALAEIPGVRSVVLFGVETHVCIQQTALELVGRGVEVHIVADATSSRSMMDRMFALERLARTGIIVTTSEAVLLQLVADKDHPKFKEIQNLIKASAPESGLLSKV [ISOC1]”, for which the values for the melting temperature in series [1] (cell cycle stage: G1/S) and in series [1] (cell cycle stage: mitosis) were 55.3 °C and 55.4 °C, respectively. The thermal stability score is -1.52 in series [2] (setting [5]) and -0.91 in series [2] (cell cycle stage: mitosis). In addition, the “solubility in G1/S (log2)” value in series [3] stood at 0.237. The “solubility change mitosis (log2)” value in series [4] is -0.11.
As for “MAAAGAPDGMEEPGMDTEAETVATEAPARPVNCLEAEAAAGAAAEDSGAARGSLQPAPAQPPGDPAAQASVSNGEDAGGGAGRELVDLKIIWNKTKHDVKFPLDSTGSELKQKIHSITGLPPAMQKVMYKGLVPEDKTLREIKVTSGAKIMVVGSTINDVLAVNTPKDAAQQDAKAEENKKEPLCRQKQHRKVLDKGKPEDVMPSVKGAQERLPTVPLSGMYNKSGGKVRLTFKLEQDQLWIGTKERTEKLPMGSIKNVVSEPIEGHEDYHMMAFQLGPTEASYYWVYWVPTQYVDAIKDTVLGKWQYF [UBFD1]”, the melting temperature was found to be 51.5 °C in series [1] (cell cycle stage: G1/S) and 52.1 °C in series [1] (cell cycle stage: mitosis). The thermal stability score is -0.222 in series [2] (setting [5]) and -0.699 in series [2] (cell cycle stage: mitosis). Further, in series [3], the “solubility in G1/S (log2)” value is 0.522. For the same sequence, in series [4], the “solubility change mitosis (log2)” value was 0.0325.
Regarding “MAAAGGARLLRAASAVLGGPAGRWLHHAGSRAGSSGLLRNRGPGGSAEASRSLSVSARARSSSEDKITVHFINRDGETLTTKGKVGDSLLDVVVENNLDIDGFGACEGTLACSTCHLIFEDHIYEKLDAITDEENDMLDLAYGLTDRSRLGCQICLTKSMDNMTVRVPETVADARQSIDVGKTS [FDX1]”, the melting temperature was found to be 53 °C in series [1] (cell cycle stage: G1/S) and 53.9 °C in series [1] (cell cycle stage: mitosis). In addition, the thermal stability score was -0.691 in series [2] (setting [5]) and -1.73 in series [2] (cell cycle stage: mitosis). Also, in series [3], the “solubility in G1/S (log2)” value was 0.338. Further, the “solubility change mitosis (log2)” value in series [4] was -0.0683.
With “MAAAGGGGGGAAAAGRAYSFKVVLLGEGCVGKTSLVLRYCENKFNDKHITTLQASFLTKKLNIGGKRVNLAIWDTAGQERFHALGPIYYRDSNGAILVYDITDEDSFQKVKNWVKELRKMLGNEICLCIVGNKIDLEKERHVSIQEAESYAESVGAKHYHTSAKQNKGIEELFLDLCKRMIETAQVDERAKGNGSSQPGTARRGVQIIDDEPQAQTSGGGCCSSG [RAB21]”, the results for the melting temperature in series [1] (cell cycle stage: G1/S) and in series [1] (cell cycle stage: mitosis) were 60.4 °C and 60.5 °C, respectively. Besides, the results for the thermal stability score in series [2] (setting [5]) and in series [2] (cell cycle stage: mitosis) were -1.73 and -1.92, respectively. Besides, the “solubility in G1/S (log2)” value in series [3] came out at 0.158. In addition, the “solubility change mitosis (log2)” value in series [4] was -0.0826.
